No end group written: not given here.
target: T1, CXC chemokine receptor 4 (CXCR4) (human, UniProt P61073 1-352); assay: cell-based or functional assay
T1 sequence (P61073 whole entry): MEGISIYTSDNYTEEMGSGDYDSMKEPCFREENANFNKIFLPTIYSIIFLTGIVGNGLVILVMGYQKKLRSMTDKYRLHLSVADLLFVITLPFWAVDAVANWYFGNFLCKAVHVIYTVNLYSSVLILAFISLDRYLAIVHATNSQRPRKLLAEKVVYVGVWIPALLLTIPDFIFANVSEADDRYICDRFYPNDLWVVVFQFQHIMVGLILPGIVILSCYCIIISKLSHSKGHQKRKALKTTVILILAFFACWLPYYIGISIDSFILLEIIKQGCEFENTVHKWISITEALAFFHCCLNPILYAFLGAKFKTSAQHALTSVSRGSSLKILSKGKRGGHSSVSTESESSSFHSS

Row | Binder | mean 50% inhibitory concentration (IC50) of infection by X4 HIV-1 strains
1 | LVRYTKKVPQVSTPTL (Chemically synthesized fragment of human serum albumin (HSA)) [peptide of SEQ ID NO 16 (408-423)] | 15.8 µg/mL

target: T1, CXC chemokine receptor 4 (CXCR4); assay: cell-based or functional assay; remark: another data set of the same source

Row | Binder | IC50 (µM), blocking of X4 tropic HIV-1 NL4-3 infection
2 | LVRYTKKVPQVSTPTL (Chemically synthesized fragment of human serum albumin (HSA)) [peptide of SEQ ID NO 16 (408-423)] | 8.63 µM
3 | IVRYTKKVPQVS [408I-419] | 2.48 µM
4 | LVRYAKKV [408-415-T412A] | 11.2 µM
5 | LARYTKKV [408-415-V409A] | 32.9 µM
6 | IVHYTKKVPQVS [408I-419 R410H] | > 100 µM
7 | IVKYTKKVPQVS [408I-419 R410K] | > 100 µM
8 | IVRFTKKVPQVS [408I-419 Y411F] | 3.89 µM
9 | IVRSTKKVPQVS [408I-419 Y411S] | > 100 µM
10 | IVRWTKKVPQVS [408I-419 Y411W] | 1.54 µM
11 | IVRYSKKVPQVS [408I-419 T412S] | 2.09 µM
12 | IVRYTKCVPQVS [408I-419 K414C] | 5.87 µM
13 | LVRYTKKVPQVSTPT [408-422] | 13.4 µM
14 | IVRYTKKVPQCS [408I-419 V418C] | 3.69 µM
15 | IVRYSKKVPQC [408I-418 SC] | 2.94 µM
16 | IVRWTKKVPQVC [408I-419 WC01] | 1.65 µM
17 | IVRWTCKVPQVS [408I-419 WC02] | 2.1 µM
18 | IVRWCKKVPQVS [408I-419 WC03] | 1.82 µM
19 | IVRWSKKVPQCS [408I-419 WSC01] | 0.87 µM

Row | Binder | IC50 (µM), blocking of X4 tropic HIV-1 NL4-3 infection
20 | IVRWSKKVPCVS [408I-419 WSC02] | 0.31 µM
21 | IVRWSKKVCQVS [408I-419 WSC03] | 1.51 µM
22 | IVRYTKCVPQVS (also: homodimer, disulfide between Cys of the two monomers) [408I-419 K414C x2] | 1.05 µM
23 | IVRYTKKVPQCS (also: homodimer, disulfide between Cys of the two monomers) [408I-419 V418C x2] | 0.46 µM
24 | LVRYTKKVPQVSTP [408-421] | 14 µM
25 | IVRWTKKVPQVC (also: homodimer, disulfide between Cys of the two monomers) [408I-419 WC01_x2] | 0.4 µM
26 | IVRWTCKVPQVS (also: homodimer, disulfide between Cys of the two monomers) [408I-419 WC02 x2] | 0.32 µM
27 | IVRWCKKVPQVS (also: homodimer, disulfide between Cys of the two monomers) [408I-419 WC03 x2] | 0.6 µM
28 | IVRYSKKVPQC (also: homodimer, disulfide between Cys of the two monomers) [408I-418 SC x2] | 0.39 µM
29 | IVRWSKKVPQCS (also: homodimer, disulfide between Cys of the two monomers) [408I-419 WSC01 x2] | 0.18 µM
30 | IVRWSKKVPCVS (also: homodimer, disulfide between Cys10 of two monomers) [408I-419 WSC02 x2] | 0.12 µM
31 | LVRYTKKVPQVST [408-420] | 15.3 µM
32 | LVRYTKKVPQVS [408-419] | 5.49 µM
33 | LVRYTKKVPQV [408-418] | 26.8 µM
34 | LVRYTKKVPQ [408-417] | 19.8 µM
35 | LVRYTKKV [408-415] | 25.7 µM
36 | LLVRYTKKVPQVS [407-419] | 11.1 µM

target: T2, eGFP-CXCR4 (UniProt P61073 1-352); assay: competition with 100 nM CXCL12-TexasRed on cells expressing eGFP-CXCR4, real-time fluorescence
T2 construct: whole, on cells; not shown: EGFP part of the fusion
Description: Experiments were performed using cells stably expressing eGFP-CXCR4, suspended in HEPES-bovine serum albumin buffer (10 mM HEPES, 137.5 mM NaCl, 1.25 mM MgCl₂, 1.25 mM CaCl₂, 6 mM KCl, 10 mM glucose, 0.4 mM NaH₂PO₄, 0.1% bovine serum albumin (w/v), pH 7.4) (typically at 10⁶ cells/mL). Time-based recordings of the fluorescence emitted at 510 nm (excitation at 470 nm) were performed at 21° C. using a spectrofluorimeter and sampled every 0.3 s. Fluorescence binding measurements were initiated by adding at 30 s 100 nM of CXCL12-TR to the 1 mL cell suspension. For competition experiments, EGFP-CXCR4 expressing cells were preincubated for 10 min in the absence or presence of various concentrations of unlabelled drugs. Then, CXCL12-TR (100 nM) was added and fluorescence was recorded until equilibrium was reached (300 s). Data were analyzed using Kaleidagraph 3.08 software (Synergy Software, Reading, Pa., USA).

T2 sequence (P61073 whole entry, the tested form may be a part): as the sequence (P61073 whole entry) above

Row | Binder | Ki
37 | LVRYTKKVPQVSTPTL (Chemically synthesized fragment of human serum albumin (HSA)) [peptide of SEQ ID NO 16 (408-423)] | 3000 nM

Source: patent US20160122389A1 (PHARIS BIOTEC, published 2016)
